Experimental data published in US20240376151A1, “STAPLED PEPTIDES AND METHODS THEREOF” (FOG PHARMACEUTICALS, INC., priority 2022, published 2024).

Biological target: T1, RNF31 UBA domain (Homo sapiens, UniProt Q96EP0)
T1 construct: RNF31 UBA domain protein (residues 480-639) with N-terminal Thioredoxin-TEV-6×his-yBBr-3C tags; Thioredoxin (N, cleaved yes); made in house; host or cells: E. coli BL21 (DE3) pLysS
T1 sequence (Q96EP0 480-639): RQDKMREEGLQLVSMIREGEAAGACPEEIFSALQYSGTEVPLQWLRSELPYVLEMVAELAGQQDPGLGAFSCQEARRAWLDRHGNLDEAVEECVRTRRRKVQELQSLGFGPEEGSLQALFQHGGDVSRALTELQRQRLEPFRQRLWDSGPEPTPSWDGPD
Experiment: Phage Library Screening with NGS, RNF31 UBA domain
Format: binding
Conditions: for Phage library screen NGS readout, Target Concentration 10 / Phage library screen NGS readout, Target Concentration 30 / Phage library screen NGS readout, Target Concentration 100 / Phage library screen NGS readout, Target Concentration 300 / Phage library screen NGS readout, Target Concentration 1000: RNF31 UBA domain cluster C46; for Phage library screen NGS readout, BLANK: cluster C46; for phage screen NGS read-out at Target Concentration 10 / phage screen NGS read-out at Target Concentration 30 / phage screen NGS read-out at Target Concentration 100 / phage screen NGS read-out at Target Concentration 300: no competitor

[1] = target concentration 1000, first column
[2] = target concentration 1000, second column

DPALTNCFSAAVYCAMF
Phage library screen NGS readout, Target Concentration 10: 8 | Phage library screen NGS readout, Target Concentration 30: 39 | Phage library screen NGS readout, Target Concentration 100: 131 | Phage library screen NGS readout, Target Concentration 300: 239 | Phage library screen NGS readout, Target Concentration 1000 [1]: 297 | Phage library screen NGS readout, Target Concentration 1000 [2]: 291 | Phage library screen NGS readout, BLANK (column 1 of 5): 0 | Phage library screen NGS readout, BLANK (column 2 of 5): 1 | Phage library screen NGS readout, BLANK (column 3 of 5): 1 | Phage library screen NGS readout, BLANK (column 4 of 5): 0 | Phage library screen NGS readout, BLANK (column 5 of 5): 0

DPAQVHCRSAAAWCILM
phage screen NGS read-out at Target Concentration 10: 0 | phage screen NGS read-out at Target Concentration 30: 0 | phage screen NGS read-out at Target Concentration 100: 0 | phage screen NGS read-out at Target Concentration 300: 2

DPAFYECVYAAVTCTQF
phage screen NGS read-out at Target Concentration 10: 0 | phage screen NGS read-out at Target Concentration 30: 0 | phage screen NGS read-out at Target Concentration 100: 0 | phage screen NGS read-out at Target Concentration 300: 2

DPALRTCLSAAVFCAVA
Phage library screen NGS readout, Target Concentration 10: 0 | Phage library screen NGS readout, Target Concentration 30: 6 | Phage library screen NGS readout, Target Concentration 100: 10 | Phage library screen NGS readout, Target Concentration 300: 18 | Phage library screen NGS readout, Target Concentration 1000 [1]: 15 | Phage library screen NGS readout, Target Concentration 1000 [2]: 25 | Phage library screen NGS readout, BLANK (column 1 of 5): 0 | Phage library screen NGS readout, BLANK (column 2 of 5): 0 | Phage library screen NGS readout, BLANK (column 3 of 5): 1 | Phage library screen NGS readout, BLANK (column 4 of 5): 0 | Phage library screen NGS readout, BLANK (column 5 of 5): 1

DPAFSTCVYAAVFCQNT
phage screen NGS read-out at Target Concentration 10: 0 | phage screen NGS read-out at Target Concentration 30: 0 | phage screen NGS read-out at Target Concentration 100: 1 | phage screen NGS read-out at Target Concentration 300: 8

DPAYEHCVAAAYWCYLL
phage screen NGS read-out at Target Concentration 10: 1 | phage screen NGS read-out at Target Concentration 30: 0 | phage screen NGS read-out at Target Concentration 100: 11 | phage screen NGS read-out at Target Concentration 300: 30

DPAHVHCQAAAQWCVLL
phage screen NGS read-out at Target Concentration 10: 0 | phage screen NGS read-out at Target Concentration 30: 1 | phage screen NGS read-out at Target Concentration 100: 1 | phage screen NGS read-out at Target Concentration 300: 6

DPALQHCAAAASWCWLM
phage screen NGS read-out at Target Concentration 10: 1 | phage screen NGS read-out at Target Concentration 30: 2 | phage screen NGS read-out at Target Concentration 100: 4 | phage screen NGS read-out at Target Concentration 300: 20

DPAFSQCIYAAFQCDMQ
phage screen NGS read-out at Target Concentration 10: 0 | phage screen NGS read-out at Target Concentration 30: 0 | phage screen NGS read-out at Target Concentration 100: 0 | phage screen NGS read-out at Target Concentration 300: 2

DPAQWVCHMAAMNCLYQ
phage screen NGS read-out at Target Concentration 10: 0 | phage screen NGS read-out at Target Concentration 30: 1 | phage screen NGS read-out at Target Concentration 100: 0 | phage screen NGS read-out at Target Concentration 300: 4

DPAHHHCQAAAAWCWVM
phage screen NGS read-out at Target Concentration 10: 2 | phage screen NGS read-out at Target Concentration 30: 0 | phage screen NGS read-out at Target Concentration 100: 4 | phage screen NGS read-out at Target Concentration 300: 19

DPADLICQLAAANCIYL
phage screen NGS read-out at Target Concentration 10: 0 | phage screen NGS read-out at Target Concentration 30: 0 | phage screen NGS read-out at Target Concentration 100: 2 | phage screen NGS read-out at Target Concentration 300: 30

DPAEQRCLSAAVYCAWH
Phage library screen NGS readout, Target Concentration 10: 1 | Phage library screen NGS readout, Target Concentration 30: 3 | Phage library screen NGS readout, Target Concentration 100: 16 | Phage library screen NGS readout, Target Concentration 300: 18 | Phage library screen NGS readout, Target Concentration 1000 [1]: 36 | Phage library screen NGS readout, Target Concentration 1000 [2]: 26 | Phage library screen NGS readout, BLANK (column 1 of 5): 0 | Phage library screen NGS readout, BLANK (column 2 of 5): 1 | Phage library screen NGS readout, BLANK (column 3 of 5): 1 | Phage library screen NGS readout, BLANK (column 4 of 5): 0 | Phage library screen NGS readout, BLANK (column 5 of 5): 0

DPAFSRCVYAAVACEDH
phage screen NGS read-out at Target Concentration 10: 0 | phage screen NGS read-out at Target Concentration 30: 1 | phage screen NGS read-out at Target Concentration 100: 3 | phage screen NGS read-out at Target Concentration 300: 31

DPANEHCIAAAWWCQIL
phage screen NGS read-out at Target Concentration 10: 0 | phage screen NGS read-out at Target Concentration 30: 0 | phage screen NGS read-out at Target Concentration 100: 0 | phage screen NGS read-out at Target Concentration 300: 3

DPARYHCEAAAAWCELL
phage screen NGS read-out at Target Concentration 10: 0 | phage screen NGS read-out at Target Concentration 30: 0 | phage screen NGS read-out at Target Concentration 100: 0 | phage screen NGS read-out at Target Concentration 300: 8

DPAFSRCVYAAFTCQTF
phage screen NGS read-out at Target Concentration 10: 0 | phage screen NGS read-out at Target Concentration 30: 0 | phage screen NGS read-out at Target Concentration 100: 1 | phage screen NGS read-out at Target Concentration 300: 10

DPAFSECVYAATMCLNH
phage screen NGS read-out at Target Concentration 10: 2 | phage screen NGS read-out at Target Concentration 30: 0 | phage screen NGS read-out at Target Concentration 100: 1 | phage screen NGS read-out at Target Concentration 300: 1

DPASASCLSAAIYCSMF
Phage library screen NGS readout, Target Concentration 10: 5 | Phage library screen NGS readout, Target Concentration 30: 17 | Phage library screen NGS readout, Target Concentration 100: 122 | Phage library screen NGS readout, Target Concentration 300: 255 | Phage library screen NGS readout, Target Concentration 1000 [1]: 247 | Phage library screen NGS readout, Target Concentration 1000 [2]: 297 | Phage library screen NGS readout, BLANK (column 1 of 5): 0 | Phage library screen NGS readout, BLANK (column 2 of 5): 0 | Phage library screen NGS readout, BLANK (column 3 of 5): 1 | Phage library screen NGS readout, BLANK (column 4 of 5): 0 | Phage library screen NGS readout, BLANK (column 5 of 5): 0

DPASSHCQSAAIWCYLM
phage screen NGS read-out at Target Concentration 10: 1 | phage screen NGS read-out at Target Concentration 30: 0 | phage screen NGS read-out at Target Concentration 100: 6 | phage screen NGS read-out at Target Concentration 300: 35

DPALSTCVYAAVMCQDV
phage screen NGS read-out at Target Concentration 10: 0 | phage screen NGS read-out at Target Concentration 30: 0 | phage screen NGS read-out at Target Concentration 100: 2 | phage screen NGS read-out at Target Concentration 300: 4

DPAREHCDSAAIFCYIL
phage screen NGS read-out at Target Concentration 10: 0 | phage screen NGS read-out at Target Concentration 30: 0 | phage screen NGS read-out at Target Concentration 100: 1 | phage screen NGS read-out at Target Concentration 300: 14

DPADWTCVLAAHNCLYT
phage screen NGS read-out at Target Concentration 10: 0 | phage screen NGS read-out at Target Concentration 30: 0 | phage screen NGS read-out at Target Concentration 100: 0 | phage screen NGS read-out at Target Concentration 300: 1

DPAFSLCVYAAVECDHA
phage screen NGS read-out at Target Concentration 10: 0 | phage screen NGS read-out at Target Concentration 30: 0 | phage screen NGS read-out at Target Concentration 100: 0 | phage screen NGS read-out at Target Concentration 300: 1

DPAMYICEMAAANCLYQ
phage screen NGS read-out at Target Concentration 10: 0 | phage screen NGS read-out at Target Concentration 30: 1 | phage screen NGS read-out at Target Concentration 100: 1 | phage screen NGS read-out at Target Concentration 300: 6

DPAFSECVYAAFSCSWI
phage screen NGS read-out at Target Concentration 10: 1 | phage screen NGS read-out at Target Concentration 30: 2 | phage screen NGS read-out at Target Concentration 100: 3 | phage screen NGS read-out at Target Concentration 300: 9

DPAREHCDSAAAWCWVL
phage screen NGS read-out at Target Concentration 10: 0 | phage screen NGS read-out at Target Concentration 30: 0 | phage screen NGS read-out at Target Concentration 100: 1 | phage screen NGS read-out at Target Concentration 300: 4

DPAQRQCLSAAVWCATF
Phage library screen NGS readout, Target Concentration 10: 10 | Phage library screen NGS readout, Target Concentration 30: 57 | Phage library screen NGS readout, Target Concentration 100: 121 | Phage library screen NGS readout, Target Concentration 300: 199 | Phage library screen NGS readout, Target Concentration 1000 [1]: 201 | Phage library screen NGS readout, Target Concentration 1000 [2]: 203 | Phage library screen NGS readout, BLANK (column 1 of 5): 1 | Phage library screen NGS readout, BLANK (column 2 of 5): 0 | Phage library screen NGS readout, BLANK (column 3 of 5): 2 | Phage library screen NGS readout, BLANK (column 4 of 5): 1 | Phage library screen NGS readout, BLANK (column 5 of 5): 0
